Columns and labels:
[1] = molecular target: PTBP1 (hnRNP I) (UniProt P26599-1 1-531, C250S;C251S); assay: NMR; SAXS/SANS; CLIR-MS/MS; integrative structure; ensemble in Zenodo 10.5281/zenodo.7798970; NMR/SANS: 10 mM NaPO4 pH 6.5, 20 mM NaCl, 1-2 mM DTT; protein NMR at 313/323 K, imino spectra 278-293 K; DEER 1:1 d8-glycerol at 50 K; SAS 23 C; details: protein: recombinant; stem-loops D, E and F with single-stranded linkers
[2] = molecular target: PTBP1 RRM1 (UniProt P26599-1 41-163); assay: NMR (intermolecular NOEs); binding register confirmed; NMR/SANS: 10 mM NaPO4 pH 6.5, 20 mM NaCl, 1-2 mM DTT; protein NMR at 313/323 K, imino spectra 278-293 K; DEER 1:1 d8-glycerol at 50 K; SAS 23 C; details: protein: recombinant; hairpin
Sequence of PTBP1 RRM1 (P26599 41-163): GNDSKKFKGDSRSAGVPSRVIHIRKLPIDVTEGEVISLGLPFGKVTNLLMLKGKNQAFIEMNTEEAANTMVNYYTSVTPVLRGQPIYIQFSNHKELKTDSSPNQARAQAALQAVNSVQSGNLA

Sequence of PTBP1 (hnRNP I) (P26599 other isoform, or with tags, fused parts or gaps C250S;C251S): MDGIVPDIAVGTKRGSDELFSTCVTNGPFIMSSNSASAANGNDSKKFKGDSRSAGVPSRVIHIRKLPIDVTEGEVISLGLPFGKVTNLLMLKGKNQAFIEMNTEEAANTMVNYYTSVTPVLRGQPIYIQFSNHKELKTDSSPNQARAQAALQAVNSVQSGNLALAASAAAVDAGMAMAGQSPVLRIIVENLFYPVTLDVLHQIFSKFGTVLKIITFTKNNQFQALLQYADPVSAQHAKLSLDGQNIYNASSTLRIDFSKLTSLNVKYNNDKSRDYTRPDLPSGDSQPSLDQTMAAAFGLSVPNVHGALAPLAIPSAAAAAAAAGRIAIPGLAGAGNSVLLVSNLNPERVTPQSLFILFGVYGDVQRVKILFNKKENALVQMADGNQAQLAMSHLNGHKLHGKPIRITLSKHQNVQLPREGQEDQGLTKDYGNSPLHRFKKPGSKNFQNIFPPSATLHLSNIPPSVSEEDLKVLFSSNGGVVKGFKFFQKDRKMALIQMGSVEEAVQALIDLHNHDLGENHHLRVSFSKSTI

Binder	binding result [1]	binding result [2]
EMCV-IRES-DtoF (structured_RNA) RNA: UACUGGCCGAAGCCGCUUGGAAUAAGGCCGGUGUGCGUUUGUCUAUAUGUUAUUUUCCACCAUAUUGCCGUCUUUUGGCAAUGUG	binds	–
GGAGCGUUUGUCUAUAUGUUCC (structured_RNA) [SLE]	–	binds

Source: publication PMC10576089, “Integrative solution structure of PTBP1-IRES complex reveals strong compaction and ordering with residual conformational flexibility”
